From patent publication US20200147235A1 (AbbVie / Abbott, published 2020)
Positions count from the first letter of the chain named.

T1: Human CD98 expressed on stably transfected CHO-K1 cells (human)
T1 construct: also called huCD98; CD98 heavy chain
T1 chain: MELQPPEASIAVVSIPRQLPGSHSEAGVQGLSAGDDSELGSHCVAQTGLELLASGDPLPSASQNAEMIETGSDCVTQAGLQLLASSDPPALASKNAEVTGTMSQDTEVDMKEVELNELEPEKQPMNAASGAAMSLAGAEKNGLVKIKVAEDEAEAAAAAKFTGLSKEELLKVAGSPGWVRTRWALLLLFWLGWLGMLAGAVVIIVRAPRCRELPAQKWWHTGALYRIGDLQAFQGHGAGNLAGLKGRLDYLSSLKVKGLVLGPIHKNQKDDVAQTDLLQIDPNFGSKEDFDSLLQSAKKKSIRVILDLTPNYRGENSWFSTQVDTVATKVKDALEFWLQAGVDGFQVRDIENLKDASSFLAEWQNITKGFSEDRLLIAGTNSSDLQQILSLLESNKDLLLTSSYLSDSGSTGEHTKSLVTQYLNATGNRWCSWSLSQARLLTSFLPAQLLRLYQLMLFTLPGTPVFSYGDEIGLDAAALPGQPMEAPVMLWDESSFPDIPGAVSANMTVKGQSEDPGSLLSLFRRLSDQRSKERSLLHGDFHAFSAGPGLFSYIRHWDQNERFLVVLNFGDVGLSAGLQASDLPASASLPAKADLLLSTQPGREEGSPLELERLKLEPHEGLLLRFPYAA

T2: Human CD98 ECD with C-terminal His-tag (human, UniProt P08195 105-529)
T2 construct: also called huCD98 ECD; recombinant human CD98 extracellular domain
T2 sequence: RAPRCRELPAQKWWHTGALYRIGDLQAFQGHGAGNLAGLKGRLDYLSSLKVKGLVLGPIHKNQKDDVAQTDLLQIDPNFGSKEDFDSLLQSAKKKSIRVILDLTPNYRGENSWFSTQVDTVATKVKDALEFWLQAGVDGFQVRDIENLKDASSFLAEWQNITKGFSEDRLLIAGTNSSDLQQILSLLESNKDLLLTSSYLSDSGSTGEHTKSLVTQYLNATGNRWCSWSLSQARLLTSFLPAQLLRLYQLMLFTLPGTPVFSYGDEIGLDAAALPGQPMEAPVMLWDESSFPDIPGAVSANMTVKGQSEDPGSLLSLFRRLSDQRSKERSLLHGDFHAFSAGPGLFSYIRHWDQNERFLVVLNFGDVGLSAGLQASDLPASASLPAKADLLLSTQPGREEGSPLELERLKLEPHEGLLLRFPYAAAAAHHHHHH

T3: Cynomolgus monkey CD98 ECD with C-terminal His-tag (cynomolgus monkey, UniProt P08195 105-529 (human entry))
T3 construct: also called cyCD98 ECD; recombinant cynomolgus monkey CD98 extracellular domain
T3 chain: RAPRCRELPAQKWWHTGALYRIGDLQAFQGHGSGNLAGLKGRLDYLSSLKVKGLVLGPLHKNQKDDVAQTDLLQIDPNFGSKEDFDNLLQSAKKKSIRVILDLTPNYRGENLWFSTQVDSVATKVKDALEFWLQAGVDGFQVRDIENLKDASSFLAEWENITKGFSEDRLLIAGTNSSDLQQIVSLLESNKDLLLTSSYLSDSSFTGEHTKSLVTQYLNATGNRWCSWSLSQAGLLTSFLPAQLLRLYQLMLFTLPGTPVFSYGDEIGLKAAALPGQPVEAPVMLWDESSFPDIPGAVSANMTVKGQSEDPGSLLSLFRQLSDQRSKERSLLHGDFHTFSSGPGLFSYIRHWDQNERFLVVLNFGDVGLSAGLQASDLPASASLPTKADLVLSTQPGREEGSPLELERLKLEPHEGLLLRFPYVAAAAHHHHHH

B1: Recombinant anti-CD98 chimeric antibody chAb1 (antibody, human IgG1, V domains shown)
VH: EVKLVESGGGLVQPGGSLRLSCATSGFTFTDYYMSWVRQPPGKALEWLGFIRNPANVYTTEYSASVKGRFTISRDNSQSILYLQMNTLRAEDSATYYCARASYGNSEGWFAYWGQGTLVTVSA
VL: DIVMSQSPSSLAVSVGEKVTMSCKSSQNLLYNNNQKNYLAWYQQKPGQSPKLLIYWASTRESGVPDRFTGSGSGTDFTLTISSVKAEDLAVYYCQQYYSYPRTFGGGTKLEIK
B2: Recombinant anti-CD98 chimeric antibody chAb3 (antibody, human IgG1, V domains shown)
VH: EVKLVESGGGLVQPGNSLRLSCATSGFTFIDYYMSWVRQSPGKALEWLGFIRNKANGYTTEYSASVKGRFTISRDNSQSILYLQMDTLRAEDSATYYCTRDRPAWFVYWGQGTLVTVSA
VL: B1 VL with N28S, N32S, N33S, I81F, K85R, R102Y
B3: Recombinant anti-CD98 chimeric antibody chAb4 (antibody, human IgG1, V domains shown)
VH: B1 VH with A23T, P54K, N56T, V57I
VL: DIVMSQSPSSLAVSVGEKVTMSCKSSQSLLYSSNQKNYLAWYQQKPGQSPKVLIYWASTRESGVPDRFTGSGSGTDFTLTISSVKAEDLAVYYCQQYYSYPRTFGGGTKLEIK
B4: Recombinant anti-CD98 chimeric antibody chAb2 (antibody, human IgG1, V domains shown)
VH: B1 VH with T28N, P54K, V57G, N76D
VL: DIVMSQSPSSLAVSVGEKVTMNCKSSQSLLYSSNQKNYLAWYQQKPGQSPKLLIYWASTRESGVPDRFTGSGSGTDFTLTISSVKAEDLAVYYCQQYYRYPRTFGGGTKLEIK
B5: Recombinant anti-CD98 chimeric antibody chAb5 (antibody, human IgG1, V domains shown)
VH: B1 VH with S35T, P54K, V57G, Q78L, G104V
VL: B1 VL with N28S, N32S, N33S, P46L, Q96H
B6: Recombinant anti-CD98 chimeric antibody chAb6 (antibody, human IgG1, V domains shown)
VH: QVQLKESGPGLAQPSQTLSLTCTVSGFSLSTYGVIWLRQPPGKGLEWMGVIWTNGNTNYNSTLKSRLSISRDTSESQVYLQMNSLQTEDTATYYCARHYYDGAYYYGYFDYWGQGVMVTVSS
VL: DIVMTQTPSSQAVSAGEKVTMSCKSSQSLLYSENKKNYLAWYQQKPGQSPKLLIYWASTRESGVPDRFIGSGSGTDFTLTISSVQAEDLAVYYCQQYYYFPYTFGAGTKLELK
B7: Recombinant anti-CD98 chimeric antibody chAb9 (antibody, human IgG1, V domains shown)
VH: B6 VH with A12V, T23A, T31N, L37V, G49A, E75K, Q81K, A103T
VL: B6 VL with S32T, I69M, T103M
B8: Recombinant anti-CD98 chimeric antibody chAb13 (antibody, human IgG1, V domains shown)
VH: B6 VH with A12V, T31S, L37V, V50I, T53A, T62A, E75K, Q81K, A103T, Y104H
VL: B6 VL with I2T, N37K, Y99N
notes: also called chAbl 3

Target: T1, Human CD98 expressed on stably …
Experiment: flow cytometry, CHO-K1 cells expressing human CD98
Description: (§1) Briefly, binding kinetics of anti-CD98 chimera mAbs for human and cynomolgus CD98 ECDs were determined by surface plasmon resonance-based measurements as described in Example 4. Table 10 reported the association and dissociation rate constants for CD98 binding, kₐ (M⁻¹s⁻¹) and kd (s⁻¹), and the equilibrium dissociation constant KD (M) of the interaction between antibodies and the target antigen. Binding of anti-CD98 chimera mAbs for CD98 on cell surface was evaluated by flow cytometry against CHO-K1 cell line stably transfected to express human CD98 and 3T12 cell line stably transfected to express cynomolgus monkey CD98.

EC50 [nM]	Binder
1.67	B1
2.02	B2
5.41	B3
3.84	B4
3.25	B5
2.08	B6
8.55	B7
3.24	B8

Target: T2, Human CD98 ECD with C-terminal His-tag
Experiment: SPR Biacore, anti-Fc capture of mAb, CD98 ECD analyte
Description: (§2) The binding kinetics of these purified mouse and rat monoclonal anti-CD98 antibodies for purified recombinant CD98 protein (extracellular domain. ECD) were determined by surface plasmon resonance-based measurements made on Biacore T100/T200 instruments (GE Healthcare, Piscataway, N.J.) at 25° C. using an anti-Fc capture assay approach. Binding kinetic measurements were made in the assay buffer HBS-EP+: 10 mM Hepes, pH 7.4, 150 mM NaCl, 3 mM EDTA, 0.05% Tween 20). For example, approximately 8000 RU of anti-Fc (species specific) polyclonal antibody (Thermo Fisher Scientific Inc. Rockford, Ill.) diluted in 10 mM sodium acetate (pH 4.5) was directly immobilized across a CM5 research grade biosensor chip using a standard amine coupling kit according to manufacturer's instructions and procedures at 25 μg/ml. Unreacted moieties on the biosensor surface were blocked with ethanolamine. The test antibody to be captured as a ligand was diluted in running buffer to ˜0.5 μg/mL and injected over anti-Fc surface at a flow rate of 10 μL/min, CD98 binding and dissociation were observed under a continuous flow rate of 80 μL/min. Human and cynomolgus monkey CD98 ECDs, both with a C-terminal His-tag, are used for this study (Table 3). After each cycle the anti-Fc capture surface was regenerated using 10 mM Glycine-HCl, pH 1.5. During the assay, all measurements were referenced against the capture surface alone (i.e., with no captured test antibody) and buffer-only injections (no antigen) were used for double referencing. For kinetic analysis, rate equations derived from the 1:1 Langmuir binding model were fitted simultaneously, globally and with mass transfer term included to multiple referenced antigen binding curves using Biacore T100T200 Evaluation software.
(§3) Briefly, binding kinetics of anti-CD98 chimera mAbs for human and cynomolgus CD98 ECDs were determined by surface plasmon resonance-based measurements as described in Example 4.

Kd [nM]	koff [s⁻¹]	kon [M⁻¹ s⁻¹]	Binder
0.21	1.5e-05	68000	B1
21	0.0034	160000	B2
2.8	7.8e-05	28000	B3
1.6	9.6e-05	59000	B4
7.5	0.0003	40000	B5
1.3	0.00014	110000	B6
3.3	0.00024	73000	B7
1.2	0.00016	130000	B8

Target: T3, Cynomolgus monkey CD98 ECD with …
Experiment: as above
Description: as §2, §3

Kd [nM]	koff [s⁻¹]	kon [M⁻¹ s⁻¹]	Binder
0.8	2.2e-05	28000	B1
40	0.0016	39000	B2
8.3	7.3e-05	8800	B3
58	0.0011	19000	B4
25	0.00044	18000	B5
7.9	0.00037	47000	B6
19	0.00063	33000	B7
7.1	0.00044	62000	B8

Target: T4, Cynomolgus monkey CD98 expressed on stably transfected 3T12 cells (cynomolgus monkey)
T4 construct: whole, on cells; also called cyCD98
Experiment: flow cytometry, 3T12 cells expressing cynomolgus CD98
Description: as §1

EC50 [nM]	Binder
9.86	B1
9.87	B2
17.2	B3
12.7	B4
24.2	B5
5.99	B6
11.1	B7
2.98	B8
